Data taken from US10799462B2, “Peptide-polypeptide co-assembled nanoparticles for drug delivery” (B. G. Negev Technologies and Applications Ltd., at …, priority 2014, dated 2020).

Key:
[1] = Dynamic light scattering (DLS) particle radius; type: physicochemical; details: for Rh* (most common radius measured at 90° using DLS): γ-PGA alone or peptide/γ-PGA NPs 1:1 w/w, n = 9; for Rh: n = 4
Description: (§1) NPs diameter was measured by dynamic light scattering (DLS) (CGS-3 LSE-5003, ALV, Langen, Germany) at different angles of the detector (90, 60 and 30 degrees) and by Small angle X-ray scattering (SAXS) (SAXLAB's GANESHA 300 XL, Skovlunde, Denmark) Sealed Tube Generator: Cu-Ka 0.154 nm (Genix 3D) equipped with a 2D detector (Pilatus 300k). Surface charge was measured by Zetasizer (Zetasizer Nano ZS, Malvern, Worcestershire, UK) and subsequently the data was analyzed using the Smoluchowski model.

[2] = Zeta potential / surface charge by Zetasizer (Smoluchowski model); type: physicochemical; details: for ξ zeta potential: n = 4
Description: as §1

[3] = Circular dichroism (CD) secondary structure; type: physicochemical; details: for change of CD pattern on mixing with γ-PGA: peptide:γ-PGA 0.25:0.25 mg/ml
Description: CD measurements were performed to characterize secondary structure of peptides in the NPs solution. Spectra in the range of 190-260 nm were recorded at room temperature on CD spectropolarimeter (J-715, Jasco, Tokyo, Japan), using a 1-mm quartz cuvette.

Saos2 cells = test: XTT cell viability (cytotoxicity); type: cell-based; details: Homo sapiens, SAOS-2; Saos2 cultures; results not shown
Description: The cytotoxicity of coated nanoparticles was assessed by monitoring the viability of Saos2 cells in presence of the NPs. All cell cultured were carried in air supplemented with 5% CO2 at 37° C. In 24 wells plate, 3*10^4 cells/well were seeded, in DMEM complete medium and cultured for 4 h. The cells were supplemented with different concentrations of LND-NPs, control NPs, or free LND and cultured overnight. Cells viability was determined by XTT assay following the manufacturer instructions (Life Technologies, California, USA). The XTT solution was added to the wells and cells were incubated for 4 hr after which the absorbance of the samples was measured at 490 nm, by a microplate-reader (BioTek instruments, Winoosky, Vt.). Cells viability is reported as percentage compared to untreated cultured cells.

[4] = γ-PGA alone or peptide/γ-PGA NPs 1:1 w/w, n = 9
[5] = γ-PGA/PFK NPs coated with the peptide, coating solution 0.1 mg/ml
[6] = γ-PGA/PFK NPs coated with the peptide, coating solution 0.5 mg/ml
[7] = NPs coated with PFK 0.1 mg/ml, single or repeated addition
[8] = PFK alone or PFK/γ-PGA NPs at different PFK:γ-PGA weight ratios, n = 3

Row | Molecule | Rh* (most common radius measured at 90° using DLS) [1] [nm] | ζ zeta potential [2, 4] [mV] | change of CD pattern on mixing with γ-PGA [3] | IC50 (Saos2 cells) [mM] | Rh [1, 5] [nm] | Rh [1, 6] [nm] | ξ zeta potential [2, 5] [mV] | ξ zeta potential [2, 6] [mV] | Rh [1, 7] [nm] | Radius (Rh, DLS at 90°) [1, 8] | ξ zeta potential [2, 7] [mV] | ζ zeta potential [2, 8] [mV] | θ215/θ203 (β-sheet relative to unfolded) as function of pH ([3]; PFK alone or 1:1 w/w with γ-PGA)
1 | KFFFKKFFKFFKK [rFK, scrambled order control of FK] | 6.45 ± 1.2 | −38.78 ± 3.92 | primarily the Phe-Phe side chain type of absorption |  |  |  |  |  |  |  |  |  | 
2 | O=C(O)c1nn(Cc2ccc(Cl)cc2Cl)c2ccccc12 [free LND, Lonidamine] |  |  |  | 1.3 |  |  |  |  |  |  |  |  | 
3 | FK(FK)5F (FKFKFKFKFKFKF) [free termini version of the amphiphilic peptide] | 7.41 ± 1.7 | −43.71 ± 9.2 | most pronounced shift to β-sheet structure |  |  |  |  |  |  |  |  |  | 
4 | KFFPKKPFKFFKK [rPFK, scrambled order control of PFK] | 9.57 ± 6 | −25.26 ± 8.79 | almost no change in its CD pattern |  | 11.04 ± 7.77 | 9.72 ± 1.03 | −37.26 ± 7.03 | −36.0 ± 2.69 |  |  |  |  | 
5 | PK(FK)5P (PKFKFKFKFKFKP) [PFK, proline capped amphiphilic cationic 13-residue peptide] | 11.4 ± 2 | −49.3 ± 2 | most pronounced shift to β-sheet structure |  | 9.8 ± 0.23 | 52.2 ± 50.63 | −33.52 ± 3.11 | −35.42 ± 4.5 | 9.8 ± 0.23 | Non spherical NPs | −33.52 ± 3.11 | 11.6 ± 5 | steep increase in θ215/θ203 value at pH˜8
